Assay results as given in patent publication US20210379195A1, “METHODS FOR ALLOGENEIC HEMATOPOIETIC STEM CELL TRANSPLANTATION” (Magenta Therapeutics, Inc., priority 2018, published 2021).
Changes are numbered by the printed parent chain.

B1: Ab61: anti-CD117 antibody, VH SEQ ID NO: 69, VL SEQ ID NO: 70 (antibody, V domains shown)
VH: EVQLLESGGGLVQPGGSLRLSCAASGFTFSSYVMIWVRQAPGKGLEWVSSISGDSVTTYYADSVKGRFTISRDNSKNTLYLQMNSLRAEDTAVYYCAKGPPTYHTNYYYMDVWGKGTTVTVSS
VL: DIQMTQSPSSVSASVGDRVTITCRASQGISSWLAWYQQKPGKAPKLLIYAASSLQSGVPSRFSGSGSGTDFTLTISSLQPEDFATYYCQQTNSFPYTFGGGTKVEIK
B2: Ab54: anti-CD117 antibody, VH SEQ ID NO: 29, VL SEQ ID NO: 30 (antibody, V domains shown)
VH: QVQLVQSGAEVKKPGSSVKVSCKASGGTFSSYAISWVRQAPGQGLEWMGGIIPIFGTANYAQKFQGRVTITADESTSTAYMELSSLRSEDTAVYYCARGGLDTDEFDLWGRGTLVTVSS
VL: DIQMTQSPSSLSASVGDRVTITCRASQSINSYLNWYQQKPGKAPKLLIYAASSLQSGVPSRFSGSGSGTDFTLTISSLQPEDFATYYCQQGVSDITFGGGTKVEIK
B3: Ab56: anti-CD117 antibody, VH SEQ ID NO: 39, VL SEQ ID NO: 40 (antibody, V domains shown)
VH: B2 VH with S31L, I54A
VL: B2 VL
B4: Ab57: anti-CD117 antibody, VH SEQ ID NO: 49, VL SEQ ID NO: 50 (antibody, V domains shown)
VH: B2 VH with S31L, I54H, T57L
VL: B2 VL
B5: Ab55: anti-CD117 antibody, VH SEQ ID NO: 19, VL SEQ ID NO: 20 (antibody, V domains shown)
VH: B2 VH with S30R, S31I, I54D, T57V
VL: B2 VL
B6: Ab249: human anti-CD117 antibody derived from CK6, VH SEQ ID NO: 238, VL SEQ ID NO: 242 (antibody, V domains shown)
VH: EVQLVQSGAEVKKPGESLKISCKGSGYRFTTSWIGWVRQMPGKGLEWMGIIYPGDSDTRYSPSFQGQVTISADKSISTAYLQWSSLKASDTAMYYCARHGLGYNGYEGAFDIWGQGTLVTVSS
VL: DIQMTQSPSSLSASVGDRVTITCRASQGIGSALAWYQQKPGKAPKLLIYDASNLETGVPSRFSGSGSGTDFTLTISSLQPEDFATYYCQQLNGYPLTFGQGTRLEIK

Target: T1, CD117 (Homo sapiens, UniProt P10721)
T1 sequence (P10721 26-976): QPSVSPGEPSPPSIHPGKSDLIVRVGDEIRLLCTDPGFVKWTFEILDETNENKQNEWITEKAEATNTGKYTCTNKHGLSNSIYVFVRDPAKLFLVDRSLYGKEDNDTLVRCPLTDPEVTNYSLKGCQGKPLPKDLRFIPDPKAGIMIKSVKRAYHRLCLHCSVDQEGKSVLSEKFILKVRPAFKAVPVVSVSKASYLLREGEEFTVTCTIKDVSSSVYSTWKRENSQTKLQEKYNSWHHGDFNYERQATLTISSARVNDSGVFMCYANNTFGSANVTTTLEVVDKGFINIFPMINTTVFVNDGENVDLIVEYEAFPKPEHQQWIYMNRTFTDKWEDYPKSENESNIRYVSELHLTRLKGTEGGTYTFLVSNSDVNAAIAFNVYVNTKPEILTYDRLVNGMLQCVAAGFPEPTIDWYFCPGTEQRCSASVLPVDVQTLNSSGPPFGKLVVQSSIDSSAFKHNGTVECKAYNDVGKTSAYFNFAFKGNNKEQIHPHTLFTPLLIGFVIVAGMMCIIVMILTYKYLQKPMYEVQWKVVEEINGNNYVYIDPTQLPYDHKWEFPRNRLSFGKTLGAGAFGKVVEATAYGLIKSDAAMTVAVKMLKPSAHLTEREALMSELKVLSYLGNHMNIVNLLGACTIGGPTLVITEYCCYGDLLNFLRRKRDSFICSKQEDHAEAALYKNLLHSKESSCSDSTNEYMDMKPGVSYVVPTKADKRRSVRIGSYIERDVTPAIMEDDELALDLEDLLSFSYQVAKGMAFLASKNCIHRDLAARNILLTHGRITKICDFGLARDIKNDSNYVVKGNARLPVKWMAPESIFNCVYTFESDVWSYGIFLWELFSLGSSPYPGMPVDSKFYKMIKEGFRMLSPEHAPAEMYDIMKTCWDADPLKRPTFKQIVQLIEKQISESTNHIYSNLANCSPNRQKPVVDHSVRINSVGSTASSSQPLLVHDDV
Assay: In vitro stem cell factor (SCF)-dependent cell proliferation assay (neutral vs antagonist)
Assay type: cell-based
Parameters: endogenous in cells; host or cells: CD34+ cells dependent on SCF
Description: Neutral antibodies can be identified using, for example, an in in vitro stem cell factor (SCF)-dependent cell proliferation assay. In an SCF dependent cell proliferation assay, a neutral CD117 antibody will not kill CD34+ cells that are dependent on SCF to divide, as a neutral antibody will not block SCF from binding to CD117 such as to inhibit CD117 activity.

| Molecule | effect on CD117 activity (neutral or antagonist antibody) |
| --- | --- |
| B1 | neutral |
| B2 | Antagonist |
| B3 | Antagonist |
| B4 | Antagonist |
| B5 | Antagonist |

Target: T1, CD117
Assay: Bio-layer interferometry (BLI) binding
Description: In certain embodiments, an anti-CD117 antibody, or antigen binding fragment thereof, has a certain dissociation rate which is particularly advantageous when used as a part of a conjugate. For example, an anti-CD117 antibody has, in certain embodiments, an off rate constant (Koff) for human CD117 and/or rhesus CD117 of 1×10^−2 to 1×10^−3, 1×10^−3 to 1×10^−4, […] or 1×10^−7 to 1×10^−8, as measured by bio-layer interferometry (BLI). In some embodiments, the antibody or antigen-binding fragment thereof binds CD117 (e.g., human CD117 and/or rhesus CD117) with a KD of about 100 nM or less, about 90 nM or less, about 80 nM or less, about 70 nM or less, about 60 nM or less, about 50 nM or less, about 40 nM or less, about 30 nM or less, about 20 nM or less, about 10 nM or less, about 8 nM or less, about 6 nM or less, about 4 nM or less, about 2 nM or less, about 1 nM or less as determined by a Bio-Layer Interferometry (BLI) assay.
Thus, in certain embodiments, an anti-CD117 antibody comprises a heavy chain comprising a CDR set (CDR1, CDR2, and CDR3) as set forth in SEQ ID Nos: 245, 246, and 247, and a light chain comprising a CDR set as set forth in SEQ ID Nos: 248, 249, and […], internalizes in cells expressing CD117, and has a koff rate of 5×10^−4 s^−1 or less as measured by BLI.

| Molecule | binding characteristics over CK6 |
| --- | --- |
| B6 | improved binding characteristics |
